The values that follow come from US20140178390A1.

pKi: −log10 of the molar value. Some results are limits rather than exact numbers.

Experiment [1] concerns the target Human CXCR7 (human) (UniProt P25106). Kind of experiment: cell-based or functional assay.
Experiment [2] shares this target. The experiment is described as follows: [125I]-CXCL12 displacement on NIH3T3-hCXCR7 cells, relative to cold SDF-1.
Experiment [3] shares this target. Kind of experiment: [125I]-CXCL12 displacement on NIH3T3-hCXCR7 cells.
Experiment [4] shares this target. The experiment is described as follows: competition FACS with 4 nM biotinylated SDF-1 on HEK-hCXCR7 cells.

Chain of Human CXCR7 (human) (P25106 whole entry): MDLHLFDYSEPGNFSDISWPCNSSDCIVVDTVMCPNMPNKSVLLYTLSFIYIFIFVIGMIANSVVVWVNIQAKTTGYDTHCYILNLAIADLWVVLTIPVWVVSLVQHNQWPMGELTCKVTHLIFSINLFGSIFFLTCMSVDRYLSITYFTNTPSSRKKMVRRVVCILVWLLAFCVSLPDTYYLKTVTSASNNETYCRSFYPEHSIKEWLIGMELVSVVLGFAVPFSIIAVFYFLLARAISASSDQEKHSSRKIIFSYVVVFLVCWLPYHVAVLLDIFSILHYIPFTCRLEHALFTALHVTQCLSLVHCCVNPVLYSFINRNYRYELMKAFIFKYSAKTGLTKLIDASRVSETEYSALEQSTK

Mab 8F11 (Biolegend) (antibody): in the experiment with Human CXCR7 (human) [1], the β-arrestin recruitment in absence of HSA [IC50] was found to be 12.9 and the β-arrestin recruitment in presence of HSA [IC50] was 34.8. In the experiment with Human CXCR7 (human) [2], this substance displayed an Average SDF-1 displacement (%) of 73%. This substance also showed a pKi with Human CXCR7 (human) [3] of 8.23. Besides, in the experiment with Human CXCR7 (human) [4], the competition relative to unlabelled SDF-1 (%) is over 95%.
